Test results published in US20200317768A1 (published 2020).
Numbering of substitutions follows the chain as printed.

B1: M103205H795-MY325 / M103202L889-SK1 (antibody, human IgG1, kappa)
heavy: QVTLKESGPVLVKPTETLTLTCTVSGIDLSHDDISWVRQAPGKGLEWVGIISYAGSTYYASWAKGRLTISKDTSKNQVVLTMTNMDPVDTATYYCARGVPAYSHGGDLWGQGTLVTVSSASTKGPSVFPLAPSSKSTSGGTAALGCLVKDYFPEPVTVSWNSGALTSGVHTFPAVLQSSGLYSLSSVVTVPSSSLGTQTYICNVNHKPSNTKVDKKVEPKSCDKTHTCPPCPAPELLDGPSVFLFPPKPKDTLMISRTPEVTCVVVDVSDEDPEVKFNWYVDGVEVHNAKTKPREEQYNSTYRVVSVLTVLHQDWLNGKEYKCKVSNKALPKPIEKTISKAKGQPREPQVYTLPPSREEMTKNQVSLTCLVKGFYPSDIAVEWESNGQPENNYKTTPPVLDSDGSFFLYSKLTVDKSRWQQGNVFSCSVMHEALHNHYTQKSLSLSP
light: DIVMTQSPATLSLSPGERATLSCTSSQSVYHANWLSWFQQKPGQPPKLLIYWASTLAYGVPSRFSGSGSGTDFTLTISSLQPEDAATYYCAGGYGGGRYAFGQGTKVEIKRTVAAPSVFIFPPSDEQLKSGTASVVCLLNNFYPREAKVQWKVDNALQSGNSQESVTEQDSKDSTYSLSSTLTLSKADYEKHKVYACEVTHQGLSSPVTKSFNRGEC
notes: expressed with M103202L889-SK1 as light chain
B2: M103205H795-MY327 / M103202L889-SK1 (antibody, human IgG1, kappa)
heavy: B1 heavy with D270E, Q297L
light: B1 light
notes: Fc variant made by introducing the substitutions into M103205H795-SG1; the list of substitutions runs over r149c2 and r150c2; Expressed with M103202L889-SK1 as light chain

Assays:
Test in all cases: SPR (BIACORE), antibody captured on chip, FcγR as analyte, 25 C; KD of SG1 divided by KD of the variant
[1] = molecular target: T1, human FcγRIIaR extracellular domain, His-tagged (human, UniProt P12318 34-217)
T1 construct: also called human FcγRIIa (type R); FcgRIIaR; not shown: His-tag added to the C-terminus
T1 chain: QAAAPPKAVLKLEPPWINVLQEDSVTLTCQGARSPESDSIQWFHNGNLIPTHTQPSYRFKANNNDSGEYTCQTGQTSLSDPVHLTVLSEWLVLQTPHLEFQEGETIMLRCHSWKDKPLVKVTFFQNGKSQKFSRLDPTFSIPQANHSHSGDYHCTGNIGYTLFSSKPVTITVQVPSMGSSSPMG
Description: (§1) After the measurement, the antibody captured on the chip was washed off by allowing reaction with 10 mM glycine-HCl, pH1.5 and 25 mM NaOH so that the chip was regenerated and used repeatedly. The sensorgrams obtained as measurement results were analyzed by the 1:1 Langmuir binding model using the BIACORE® Evaluation Software to calculate the binding rate constant ka (L/mol/s) and dissociation rate constant kd (l/s), and the dissociation constant KD (mol/L) was calculated from these values. […] Regarding such interactions, KD values were calculated using the following 1:1 binding model described in BIACORE® T100 Software Handbook BR1006-48 Edition AE.
(§2) The behavior of interacting molecules according to the 1:1 binding model on BIACORE® can be described by Equation 1: Req=C·R max/(KD+C)+RI, wherein, Req is a plot of steady-state binding levels to analyte concentration. C is concentration, RI is bulk refractive index contribution in the sample, and Rmax is analyte binding capacity of the surface. When this equation is rearranged, KD can be expressed as Equation 2: KD=C·Rmax/(Req−RI)−C. KD can be calculated by substituting the values of Rmax, RI, and C into Equation 1 or Equation 2. From the current measurement conditions, RI=0, C=2 μmol/L can be used.

[2] = molecular target: T2, human FcγRIIb extracellular domain, His-tagged (human, UniProt P31994 43-217)
T2 construct: also called FcgRIIb (human); not shown: His-tag added to the C-terminus
T2 sequence: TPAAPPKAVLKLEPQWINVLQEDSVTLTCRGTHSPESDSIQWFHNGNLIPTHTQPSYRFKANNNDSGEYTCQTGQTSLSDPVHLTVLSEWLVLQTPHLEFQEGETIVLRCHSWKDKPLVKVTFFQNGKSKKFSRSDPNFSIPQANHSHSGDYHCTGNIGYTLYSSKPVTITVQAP
Description: as §1, §2

[3] = molecular target: T3, human FcγRIIIaV extracellular domain, His-tagged (human, UniProt P08637 17-208)
T3 construct: also called human FcγRIIIa (allotype V158); FcgRIIIaV; not shown: His-tag added to the C-terminus
Description: as §1, §2

[4] = molecular target: T4, cynomolgus monkey FcγRIIa1 extracellular domain, His-tagged (cynomolgus monkey)
T4 construct: also called cyno FcγRIIa1; FcgRIIa1; not shown: His-tag added to the C-terminus
T4 chain: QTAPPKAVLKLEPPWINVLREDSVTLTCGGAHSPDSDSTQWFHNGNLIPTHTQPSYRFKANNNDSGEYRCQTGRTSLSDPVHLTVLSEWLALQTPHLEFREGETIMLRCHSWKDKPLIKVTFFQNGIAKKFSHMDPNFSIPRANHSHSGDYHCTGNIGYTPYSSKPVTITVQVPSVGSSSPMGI
Description: as §1, §2

[5] = molecular target: T5, cynomolgus monkey FcγRIIa2 extracellular domain, His-tagged (cynomolgus monkey)
T5 construct: also called cyno FcγRIIa2; FcgRIIa2; not shown: His-tag added to the C-terminus
T5 chain: T4 chain with P95T, T121A, I127K, A128S, K130N, D135N, R142Q
Description: as §1, §2

[6] = molecular target: T6, cynomolgus monkey FcγRIIa3 extracellular domain, His-tagged (cynomolgus monkey)
T6 construct: also called cyno FcγRIIa3; FcgRIIa3; not shown: His-tag added to the C-terminus
T6 chain: T4 chain with P95T, T121A, A128S, H133P, D135N
Description: as §1, §2

[7] = molecular target: T7, cynomolgus monkey FcγRIIb extracellular domain, His-tagged (cynomolgus monkey)
T7 construct: also called cyno FcγRIIb; cynoFcγRIIb; not shown: His-tag added to the C-terminus
T7 chain: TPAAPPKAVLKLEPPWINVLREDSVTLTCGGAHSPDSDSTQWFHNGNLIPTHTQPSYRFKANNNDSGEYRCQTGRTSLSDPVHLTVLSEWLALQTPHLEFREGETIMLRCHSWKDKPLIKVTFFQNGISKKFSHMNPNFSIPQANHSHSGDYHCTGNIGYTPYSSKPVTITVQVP
Description: as §1, §2

[8] = molecular target: T8, cynomolgus monkey FcγRIIIaS extracellular domain, His-tagged (cynomolgus monkey, UniProt A3RFZ7 21-206 (rhesus entry))
T8 construct: also called cyno FcγRIIIaS; FcgRIIIaS; not shown: His-tag added to the C-terminus
Description: as §1, §2

[9] = molecular target: T9, human FcγRIIaH extracellular domain, His-tagged (human, UniProt P12318 34-217)
T9 construct: also called human FcγRIIa (type H); FcgRIIaH; not shown: His-tag added to the C-terminus
T9 sequence: T1 chain with R134H
Description: as §1, §2

T8 sequence (A3RFZ7 21-206): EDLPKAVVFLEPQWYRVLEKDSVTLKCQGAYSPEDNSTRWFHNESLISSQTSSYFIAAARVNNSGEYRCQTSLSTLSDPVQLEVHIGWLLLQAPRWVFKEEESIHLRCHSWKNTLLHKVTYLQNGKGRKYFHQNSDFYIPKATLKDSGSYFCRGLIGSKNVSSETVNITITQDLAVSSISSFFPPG
T3 sequence (P08637 17-208 F176V): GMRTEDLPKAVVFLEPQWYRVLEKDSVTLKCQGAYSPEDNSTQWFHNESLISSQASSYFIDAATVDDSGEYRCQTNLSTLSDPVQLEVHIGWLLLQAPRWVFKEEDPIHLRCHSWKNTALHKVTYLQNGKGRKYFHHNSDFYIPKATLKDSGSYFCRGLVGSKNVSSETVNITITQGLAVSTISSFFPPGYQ

Binder | KD fold for humanFcgRs (SG1 = 1) [1] [fold] | KD fold for humanFcgRs (SG1 = 1) [2] [fold] | KD fold for humanFcgRs (SG1 = 1) [3] [fold] | KD fold for cynoFcgRs (SG1 = 1) [4] [fold] | KD fold for cynoFcgRs (SG1 = 1) [5] [fold] | KD fold for cynoFcgRs (SG1 = 1) [6] [fold] | KD fold for cynoFcgRs (SG1 = 1) [7] [fold] | KD fold for cynoFcgRs (SG1 = 1) [8] [fold] | KD fold for humanFcgRs (SG1 = 1) [9] [fold]
B1 | 3.7 | 17.7 | 0.1 | 0.8 | 1.2 | 2.9 | 1.8 | 0.09 | 1.4
B2 | 3.3 | 27 | 0.08 | 0.9 | 1.1 | 3.2 | 1.8 | 0.08 | 2
